Results from article PMC10602884, “Distinct RPA functions promote eukaryotic DNA replication initiation and elongation”.

Key:
Gp32 = biological target: T1, Gp32 (T4 bacteriophage, UniProt P03695 1-301); assay: fluorescence anisotropy; 0.5 M NaCl; apparent Kd, Hill fit; 30 mM HEPES pH 7.5, 30 mM NaCl, 0.25 mM EDTA, 10% glycerol, 0.01% NP-40, 1 mM DTT, plus 0.5 M NaCl for dT30 (no supplemental NaCl for dT60), 2.5 nM DNA, room temperature, 30 min; settings: protein: commercial; label: 6-FAM; single strand
T1 sequence: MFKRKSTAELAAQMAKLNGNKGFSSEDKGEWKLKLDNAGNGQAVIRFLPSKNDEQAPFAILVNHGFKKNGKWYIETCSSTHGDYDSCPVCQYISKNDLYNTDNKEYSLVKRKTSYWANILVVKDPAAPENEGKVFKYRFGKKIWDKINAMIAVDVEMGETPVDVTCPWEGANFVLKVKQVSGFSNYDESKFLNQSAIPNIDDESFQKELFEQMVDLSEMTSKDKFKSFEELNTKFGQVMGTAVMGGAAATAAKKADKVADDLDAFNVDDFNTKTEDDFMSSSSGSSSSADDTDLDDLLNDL

RPA-deltaOB-F-deltaWH = RPA-deltaOB-F-deltaWH (Saccharomyces cerevisiae, UniProt P22336;P26754;P26755 131-621;1-202;1-122); assay: as above; settings: protein: recombinant; tags: CBP on Rfa1; 3xFlag on Rfa2; copies: 1;1;1; label: 6-FAM; single strand
RPA-Tri-C (OB-C/D/E) = RPA-Tri-C (OB-C/D/E) (Saccharomyces cerevisiae, UniProt P22336;P26754;P26755 442-621;32-182;1-122); assay: as above; settings: protein: recombinant; tags: Rfa2 C-terminal MxeGyrA intein-CBD-6xHis (in expression construct); copies: 1;1;1; label: 6-FAM; single strand
EcSSB = EcSSB (Escherichia coli, UniProt P0AGE0 1-178); assay: as above; settings: protein: commercial; chain copies: 4; label: 6-FAM; single strand
[1] = biological target: RPA (CBP-Rfa1, Rfa2, Rfa3) (Saccharomyces cerevisiae, UniProt P22336;P26754;P26755 1-621;1-273;1-122); assay: fluorescence anisotropy; 0.5 M NaCl; apparent Kd, Hill coefficient 2.460; 30 mM HEPES pH 7.5, 30 mM NaCl, 0.25 mM EDTA, 10% glycerol, 0.01% NP-40, 1 mM DTT, plus 0.5 M NaCl for dT30 (no supplemental NaCl for dT60), 2.5 nM DNA, room temperature, 30 min; settings: protein: recombinant; tags: CBP on Rfa1; copies: 1;1;1; label: 6-FAM; single strand
Pol-alpha/primase = Pol-alpha/primase (UniProt P13382;P38121;P20457;P10363 1-1468;1-705;1-528;1-409); assay: fluorescence anisotropy; DNA pre-bound with equimolar (2.5 nM) RPA-deltaOB-F (P8); matches naked DNA; 30 mM HEPES pH 7.5, 30 mM NaCl, 0.25 mM EDTA, 10% glycerol, 0.01% NP-40, 1 mM DTT, plus 0.5 M NaCl for dT30 (no supplemental NaCl for dT60), 2.5 nM DNA, room temperature, 30 min; settings: protein: recombinant; copies: 1;1;1;1; label: 6-FAM; single strand

Sequence of RPA-deltaOB-F-deltaWH (P22336 131-621, stated change not applied, chain 1 of 3): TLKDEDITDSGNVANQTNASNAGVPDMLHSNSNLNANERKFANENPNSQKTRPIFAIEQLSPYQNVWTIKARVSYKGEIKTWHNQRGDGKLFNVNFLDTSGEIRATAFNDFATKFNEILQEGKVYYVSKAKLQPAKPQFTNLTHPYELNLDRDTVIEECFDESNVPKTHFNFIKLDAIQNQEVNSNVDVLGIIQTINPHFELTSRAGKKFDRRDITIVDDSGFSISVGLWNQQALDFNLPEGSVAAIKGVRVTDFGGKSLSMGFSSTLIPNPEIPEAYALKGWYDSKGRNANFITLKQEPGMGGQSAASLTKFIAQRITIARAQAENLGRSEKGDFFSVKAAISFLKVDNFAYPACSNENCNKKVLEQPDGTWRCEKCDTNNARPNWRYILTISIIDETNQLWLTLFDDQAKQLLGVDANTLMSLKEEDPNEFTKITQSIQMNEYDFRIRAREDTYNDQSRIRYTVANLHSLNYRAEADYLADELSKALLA
Sequence of RPA-deltaOB-F-deltaWH (P26754 1-202, stated change not applied, chain 2 of 3): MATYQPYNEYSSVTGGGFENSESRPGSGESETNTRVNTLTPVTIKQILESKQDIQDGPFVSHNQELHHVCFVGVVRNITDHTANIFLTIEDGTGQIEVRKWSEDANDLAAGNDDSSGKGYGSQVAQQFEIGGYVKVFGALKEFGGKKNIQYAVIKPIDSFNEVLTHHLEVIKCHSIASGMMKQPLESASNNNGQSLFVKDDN
Sequence of RPA-deltaOB-F-deltaWH (P26755 whole entry, stated change not applied, chain 3 of 3): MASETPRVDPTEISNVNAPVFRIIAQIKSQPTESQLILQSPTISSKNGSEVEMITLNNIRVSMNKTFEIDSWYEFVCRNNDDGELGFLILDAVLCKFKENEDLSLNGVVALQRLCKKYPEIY
Sequence of EcSSB (P0AGE0 whole entry): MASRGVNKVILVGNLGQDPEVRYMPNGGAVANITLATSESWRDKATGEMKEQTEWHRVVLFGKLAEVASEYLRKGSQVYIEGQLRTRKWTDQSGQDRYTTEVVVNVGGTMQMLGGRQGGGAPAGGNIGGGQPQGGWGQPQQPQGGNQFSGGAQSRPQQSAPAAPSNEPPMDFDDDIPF
Sequence of RPA (CBP-Rfa1, Rfa2, Rfa3) (P22336 whole entry, chain 1 of 3): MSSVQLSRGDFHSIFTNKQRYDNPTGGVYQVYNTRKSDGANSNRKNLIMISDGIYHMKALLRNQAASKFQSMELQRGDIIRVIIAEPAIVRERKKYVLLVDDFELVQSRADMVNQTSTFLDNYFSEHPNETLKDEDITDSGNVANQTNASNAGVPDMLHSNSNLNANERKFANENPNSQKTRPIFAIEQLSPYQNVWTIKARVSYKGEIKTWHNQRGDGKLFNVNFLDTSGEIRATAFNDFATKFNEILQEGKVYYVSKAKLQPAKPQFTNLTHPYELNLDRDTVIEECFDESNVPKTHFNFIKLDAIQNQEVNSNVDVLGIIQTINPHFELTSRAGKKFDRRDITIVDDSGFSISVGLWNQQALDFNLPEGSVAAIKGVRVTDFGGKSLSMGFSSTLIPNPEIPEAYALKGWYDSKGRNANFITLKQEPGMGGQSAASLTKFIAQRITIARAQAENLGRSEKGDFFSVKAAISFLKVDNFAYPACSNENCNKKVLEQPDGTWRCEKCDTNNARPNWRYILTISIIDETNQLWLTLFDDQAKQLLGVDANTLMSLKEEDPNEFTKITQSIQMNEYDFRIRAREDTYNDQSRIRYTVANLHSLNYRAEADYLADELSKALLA
Sequence of RPA (CBP-Rfa1, Rfa2, Rfa3) (P26754 whole entry, chain 2 of 3): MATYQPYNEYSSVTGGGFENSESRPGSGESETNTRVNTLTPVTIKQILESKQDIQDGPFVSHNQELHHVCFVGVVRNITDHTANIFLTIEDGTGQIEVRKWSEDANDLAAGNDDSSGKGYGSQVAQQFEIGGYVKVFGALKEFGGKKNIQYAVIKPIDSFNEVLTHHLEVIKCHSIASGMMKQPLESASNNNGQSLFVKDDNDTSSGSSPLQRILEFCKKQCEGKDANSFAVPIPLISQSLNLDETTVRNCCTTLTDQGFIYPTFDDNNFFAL
Sequence of RPA (CBP-Rfa1, Rfa2, Rfa3) (P26755 whole entry, chain 3 of 3): as the sequence (P26755 whole entry, stated change not applied, chain 3 of 3) above
Sequence of RPA-Tri-C (OB-C/D/E) (P22336 442-621, chain 1 of 3): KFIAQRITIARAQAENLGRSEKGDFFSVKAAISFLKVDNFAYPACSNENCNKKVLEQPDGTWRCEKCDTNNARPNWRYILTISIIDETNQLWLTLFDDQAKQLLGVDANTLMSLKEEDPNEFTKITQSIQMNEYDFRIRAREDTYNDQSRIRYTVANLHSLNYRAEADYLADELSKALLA
Sequence of RPA-Tri-C (OB-C/D/E) (P26754 32-182, chain 2 of 3): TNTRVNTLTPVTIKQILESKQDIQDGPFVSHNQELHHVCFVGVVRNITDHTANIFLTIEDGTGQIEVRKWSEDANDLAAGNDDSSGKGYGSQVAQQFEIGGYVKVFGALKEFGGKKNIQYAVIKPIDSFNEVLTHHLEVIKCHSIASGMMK
Sequence of RPA-Tri-C (OB-C/D/E) (P26755 whole entry, chain 3 of 3): as the sequence (P26755 whole entry, stated change not applied, chain 3 of 3) above

B1: 6-FAM-oligo-dT30 (ssDNA)
DNA: TTTTTTTTTTTTTTTTTTTTTTTTTTTTTT
Question: Which results are given for B1?
Answer: Kd (Gp32): ~18 nM; Kd (RPA-deltaOB-F-deltaWH): ~2.04 nM; Kd (RPA-Tri-C (OB-C/D/E)): ~2.97 nM; Kd (EcSSB): ~0.11 nM; Kd [1]: 1.73 nM

B2: 6-FAM-oligo-dT60 (ssDNA)
DNA: TTTTTTTTTTTTTTTTTTTTTTTTTTTTTTTTTTTTTTTTTTTTTTTTTTTTTTTTTTTT
Question: Does B2 bind (Pol-alpha/primase)?
Answer: binds
